Measurements published in the Human Domainome abundance scans (Beltran et al. 2025).
± gives the uncertainty stated by the source.

B1: SAM and SH3 domain-containing protein 1, residues 630 to 700; numbered along this chain, O94885 (parent)
chain: GRPPQPKSVEDLLDRINLKEHMPTFLFNGYEDLDTFKLLEEEDLDELNIRDPEHRAVLLTAVELLQEYDSN

Variants of: B1
Assay: abundance fitness (aPCA) (normalised: wild type 0, dead -1); higher = more abundant; growth selection in yeast, the domain comes from the species named
Conditions: Homo sapiens

Row | Variant | abundance fitness
1 | GRPPQPKSDEDLLDRINLKEHMPTFLFNGYEDLDTFKLLEEEDLDELNIRDPEHRAVLLTAVELLQEYDSN [V9D] | -0.736 ± 0.089
2 | GRPPQPKSEEDLLDRINLKEHMPTFLFNGYEDLDTFKLLEEEDLDELNIRDPEHRAVLLTAVELLQEYDSN [V9E] | -0.876 ± 0.13
3 | GRPPQPKSAEDLLDRINLKEHMPTFLFNGYEDLDTFKLLEEEDLDELNIRDPEHRAVLLTAVELLQEYDSN [V9A] | -0.844 ± 0.073
4 | GRPPQPKSCEDLLDRINLKEHMPTFLFNGYEDLDTFKLLEEEDLDELNIRDPEHRAVLLTAVELLQEYDSN [V9C] | -0.892 ± 0.13
5 | GRPPQPHSVEDLLDRINLKEHMPTFLFNGYEDLDTFKLLEEEDLDELNIRDPEHRAVLLTAVELLQEYDSN [K7H] | -0.308 ± 0.047
6 | GRPPQPPSVEDLLDRINLKEHMPTFLFNGYEDLDTFKLLEEEDLDELNIRDPEHRAVLLTAVELLQEYDSN [K7P] | -0.679 ± 0.063
7 | GRPPQPLSVEDLLDRINLKEHMPTFLFNGYEDLDTFKLLEEEDLDELNIRDPEHRAVLLTAVELLQEYDSN [K7L] | -0.323 ± 0.041
8 | GRPPQPCSVEDLLDRINLKEHMPTFLFNGYEDLDTFKLLEEEDLDELNIRDPEHRAVLLTAVELLQEYDSN [K7C] | -0.533 ± 0.066
9 | GRPPQPTSVEDLLDRINLKEHMPTFLFNGYEDLDTFKLLEEEDLDELNIRDPEHRAVLLTAVELLQEYDSN [K7T] | 0.095 ± 0.04
10 | GRPPQPFSVEDLLDRINLKEHMPTFLFNGYEDLDTFKLLEEEDLDELNIRDPEHRAVLLTAVELLQEYDSN [K7F] | -0.5 ± 0.053
11 | GRPPQPISVEDLLDRINLKEHMPTFLFNGYEDLDTFKLLEEEDLDELNIRDPEHRAVLLTAVELLQEYDSN [K7I] | -0.086 ± 0.042
12 | GRPPQPESVEDLLDRINLKEHMPTFLFNGYEDLDTFKLLEEEDLDELNIRDPEHRAVLLTAVELLQEYDSN [K7E] | -0.002 ± 0.069
13 | GRPPQPQSVEDLLDRINLKEHMPTFLFNGYEDLDTFKLLEEEDLDELNIRDPEHRAVLLTAVELLQEYDSN [K7Q] | -0.119 ± 0.067
14 | GRPPQPMSVEDLLDRINLKEHMPTFLFNGYEDLDTFKLLEEEDLDELNIRDPEHRAVLLTAVELLQEYDSN [K7M] | -0.309 ± 0.066
15 | GRPPQPVSVEDLLDRINLKEHMPTFLFNGYEDLDTFKLLEEEDLDELNIRDPEHRAVLLTAVELLQEYDSN [K7V] | -0.126 ± 0.043
16 | GRPPQPSSVEDLLDRINLKEHMPTFLFNGYEDLDTFKLLEEEDLDELNIRDPEHRAVLLTAVELLQEYDSN [K7S] | -0.097 ± 0.038
17 | GRPPQPNSVEDLLDRINLKEHMPTFLFNGYEDLDTFKLLEEEDLDELNIRDPEHRAVLLTAVELLQEYDSN [K7N] | -0.142 ± 0.041
18 | GRPPQPDSVEDLLDRINLKEHMPTFLFNGYEDLDTFKLLEEEDLDELNIRDPEHRAVLLTAVELLQEYDSN [K7D] | -0.213 ± 0.06
19 | GRPPQPASVEDLLDRINLKEHMPTFLFNGYEDLDTFKLLEEEDLDELNIRDPEHRAVLLTAVELLQEYDSN [K7A] | -0.066 ± 0.046

Row | Variant | abundance fitness
20 | GRPPQPWSVEDLLDRINLKEHMPTFLFNGYEDLDTFKLLEEEDLDELNIRDPEHRAVLLTAVELLQEYDSN [K7W] | -0.873 ± 0.12
21 | GRPPQPKQVEDLLDRINLKEHMPTFLFNGYEDLDTFKLLEEEDLDELNIRDPEHRAVLLTAVELLQEYDSN [S8Q] | -0.55 ± 0.1
22 | GRPPQPKWVEDLLDRINLKEHMPTFLFNGYEDLDTFKLLEEEDLDELNIRDPEHRAVLLTAVELLQEYDSN [S8W] | -1.35 ± 0.24
23 | GRPPQPKRVEDLLDRINLKEHMPTFLFNGYEDLDTFKLLEEEDLDELNIRDPEHRAVLLTAVELLQEYDSN [S8R] | -0.836 ± 0.082
24 | GRPPQPKAVEDLLDRINLKEHMPTFLFNGYEDLDTFKLLEEEDLDELNIRDPEHRAVLLTAVELLQEYDSN [S8A] | -0.889 ± 0.093
25 | GRPPQPKLVEDLLDRINLKEHMPTFLFNGYEDLDTFKLLEEEDLDELNIRDPEHRAVLLTAVELLQEYDSN [S8L] | -0.818 ± 0.067
26 | GRPPQPKTVEDLLDRINLKEHMPTFLFNGYEDLDTFKLLEEEDLDELNIRDPEHRAVLLTAVELLQEYDSN [S8T] | -0.244 ± 0.052
27 | GRPPQPKMVEDLLDRINLKEHMPTFLFNGYEDLDTFKLLEEEDLDELNIRDPEHRAVLLTAVELLQEYDSN [S8M] | -1.03 ± 0.14
28 | GRPPQPKHVEDLLDRINLKEHMPTFLFNGYEDLDTFKLLEEEDLDELNIRDPEHRAVLLTAVELLQEYDSN [S8H] | -0.899 ± 0.09
29 | GRPPQPKGVEDLLDRINLKEHMPTFLFNGYEDLDTFKLLEEEDLDELNIRDPEHRAVLLTAVELLQEYDSN [S8G] | -0.536 ± 0.076
30 | GRPPQPKPVEDLLDRINLKEHMPTFLFNGYEDLDTFKLLEEEDLDELNIRDPEHRAVLLTAVELLQEYDSN [S8P] | -0.758 ± 0.087
31 | GRPPQPKKVEDLLDRINLKEHMPTFLFNGYEDLDTFKLLEEEDLDELNIRDPEHRAVLLTAVELLQEYDSN [S8K] | -0.759 ± 0.11
32 | GRPPQPKVVEDLLDRINLKEHMPTFLFNGYEDLDTFKLLEEEDLDELNIRDPEHRAVLLTAVELLQEYDSN [S8V] | -1.02 ± 0.1
33 | GRPPQPKYVEDLLDRINLKEHMPTFLFNGYEDLDTFKLLEEEDLDELNIRDPEHRAVLLTAVELLQEYDSN [S8Y] | -0.899 ± 0.085
34 | GRPPQPKEVEDLLDRINLKEHMPTFLFNGYEDLDTFKLLEEEDLDELNIRDPEHRAVLLTAVELLQEYDSN [S8E] | -1.17 ± 0.25
35 | GRPPQPKNVEDLLDRINLKEHMPTFLFNGYEDLDTFKLLEEEDLDELNIRDPEHRAVLLTAVELLQEYDSN [S8N] | -0.305 ± 0.053
36 | GRPPQPKFVEDLLDRINLKEHMPTFLFNGYEDLDTFKLLEEEDLDELNIRDPEHRAVLLTAVELLQEYDSN [S8F] | -0.984 ± 0.11
37 | GRPPQPKCVEDLLDRINLKEHMPTFLFNGYEDLDTFKLLEEEDLDELNIRDPEHRAVLLTAVELLQEYDSN [S8C] | -0.701 ± 0.087
38 | GRPPQPKDVEDLLDRINLKEHMPTFLFNGYEDLDTFKLLEEEDLDELNIRDPEHRAVLLTAVELLQEYDSN [S8D] | -0.316 ± 0.076
